The supplement of paper PMC9170038

System: MS2 coat protein
Assay: apparent KD of MS2 coat protein; designed switch direction (-1 OFF switch, 1 ON switch): 1; higher = weaker reporter binding
Method in brief: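 For each design, the apparent KD is the median over clusters of curves fitted to normalised cluster fluorescence. Clusters held RNA switches with common flanks, transcribed on Illumina chips by stalled E. coli RNA polymerase. These were titrated with SNAP-549-labelled MS2 coat protein, doubling from 0.7 or 1.5 nM to 3 µM, without input, with 200 uM small-molecule ligand, or with an oligonucleotide input.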

[1] = input ligand: microRNA oligo, concentration not stated
[2] = Eterna round: R95, input ligand: FMN 200 uM
[3] = Eterna round: R95, input ligand: microRNA oligo, concentration not stated
[4] = Eterna round: R95, input ligand: none

UGGAGAAGUCAAGGAUAUGCUACCGUUUCGGUAGCAGAAGGUGAUCACAUGAGGAUCACCCAUGUAUGCAUGCGUGAGCGUGCU [JL SSNG1 3.55] (Eterna round: R96, puzzle: Same State NG 1)
apparent KD of MS2 coat protein (input ligand: FMN 200 uM): 337 nM | apparent KD of MS2 coat protein [1]: 15.2 nM | apparent KD of MS2 coat protein (input ligand: none): 125 nM

UGAAUGGUGAUAGGAUAUACAUGAGGAAUCCUCGUAGAAGGAUCACGACAUGAGGAUCACCCAUGUAGCCGUCCGUAGACGGCA [JL SSNG1 1.23] (Eterna round: R96, puzzle: Same State NG 1)
apparent KD of MS2 coat protein (input ligand: FMN 200 uM): 99.7 nM | apparent KD of MS2 coat protein [1]: 778 nM | apparent KD of MS2 coat protein (input ligand: none): 242 nM

GGAAUAUGAUGUUACAUGAGGAUCACCCAUGUAGUAAUAACUAAGGAUAUCUGAAAGGGAGGAGAAGAGAAGGUAGGAUCAUAA [AK SSNG3-V2-10.2] (Eterna round: R96, puzzle: Same State NG 3)
apparent KD of MS2 coat protein (input ligand: FMN 200 uM): 60 nM | apparent KD of MS2 coat protein [1]: 35.4 nM | apparent KD of MS2 coat protein (input ligand: none): 56.4 nM

UGUUGUAUUACAGGAUAUCUAUUGUUUUUACUUAGAGAAGGGUAUUCACAUGAGGAUCACCCAUGUAUAUACGAGGAAGUUGUG [JMF's solution 83] (Eterna round: R96, puzzle: Same State NG 1)
apparent KD of MS2 coat protein (input ligand: FMN 200 uM): 39.2 nM | apparent KD of MS2 coat protein [1]: 31 nM | apparent KD of MS2 coat protein (input ligand: none): 41.8 nM

AGUCCAGCGAAAGCUGGACAAAAGCAUGUACAUGAGGAUCACCCAUGUUCAUGUAUAAGCUUUUUGCUCGUCUUAAA [JL mod - D95 - 12] (puzzle: Sensor for hsa-mir-208a)
apparent KD of MS2 coat protein [2]: 18.1 nM | apparent KD of MS2 coat protein [3]: 9.2 nM | apparent KD of MS2 coat protein [4]: 15.9 nM

AUAAGUUCGAUGCUCGUCUCUCCGUACAAACAUGAGGAUCACCCAUGUGGCCGGGAAGUAGCCCGACCAGUAUGGCC [Tearbeorve] (puzzle: Sensor for hsa-mir-208a)
apparent KD of MS2 coat protein [2]: 38.6 nM | apparent KD of MS2 coat protein [3]: 27.1 nM | apparent KD of MS2 coat protein [4]: 45.2 nM

AGGCCAUCAGGAGGAUAUGGCACCUUAUUGGUGCCAGAAGGUCUAACAUGAGGAUCACCCAUGUGGGUGUGGUCGAAAGACCAC [Fiskers NG1(ss) - 5] (Eterna round: R96, puzzle: Same State NG 1)
apparent KD of MS2 coat protein (input ligand: FMN 200 uM): 99.9 nM | apparent KD of MS2 coat protein [1]: 71.2 nM | apparent KD of MS2 coat protein (input ligand: none): 98 nM

CUCAAACAUGAGGAUCACCCAUGUUUUUUCAUGGGAGGAUAUCUAAGUUCAUUAUAUUCAGGAGAAGGCCUAUGUC [× ×•×ª×• ×ž×“×™× ×” × ×—×ª-07] (puzzle: Same State 1)
apparent KD of MS2 coat protein [2]: 159 nM | apparent KD of MS2 coat protein [3]: 729 nM | apparent KD of MS2 coat protein [4]: 261 nM

CGGGUACAUGAGGAUCACCCAUGUGGGAGGGAUGCAGGAUAUGUGGGAAAAGGGUAUGAAACAGAAGGGCAAGGAG [JR_SS!_Sub013] (puzzle: Same State 1)
apparent KD of MS2 coat protein [2]: 29.6 nM | apparent KD of MS2 coat protein [3]: 33.2 nM | apparent KD of MS2 coat protein [4]: 35.1 nM

AUAAGUUUGAUGCUCGUCUCUCCGUACAGACAUGAGGAUCACCCAUGUAGUCAGGAAGUAGCCUGGCCAGUAUGGCC [Berave] (puzzle: Sensor for hsa-mir-208a)
apparent KD of MS2 coat protein [2]: 27.5 nM | apparent KD of MS2 coat protein [3]: 16.6 nM | apparent KD of MS2 coat protein [4]: 31.1 nM

GCUUCACAUGAGGAUCACCCAUGUCGUCGGAGUCGAGGAUAUGGUAACUGUAAACAGUUGCCAGAAGGCGAGGAGC [SS1 - Son of Teenbexe v10] (puzzle: Same State 1)
apparent KD of MS2 coat protein [2]: 23.2 nM | apparent KD of MS2 coat protein [3]: 24.4 nM | apparent KD of MS2 coat protein [4]: 26 nM

CGUCCGGCCUGUGCUGGCCGGUUGCAUGUACAUGAGGAUCACCCAUGUUCAUGUGCAGGCUUUUUGCUCGUCUUGUG [salish99_mir208a_013] (puzzle: Sensor for hsa-mir-208a)
apparent KD of MS2 coat protein [2]: 19.4 nM | apparent KD of MS2 coat protein [3]: 11.2 nM | apparent KD of MS2 coat protein [4]: 18.9 nM

ACAUGAGACUCAGGAUAUCUUGUACCUACAUGUGACAUGAGGAUCACCCAUGUGGUAAGUAUGACAGAGAAGGGAGAGAUAUGU [Equivalance 87 - Jieux - Same State NG 2] (Eterna round: R96, puzzle: Same State NG 2)
apparent KD of MS2 coat protein (input ligand: FMN 200 uM): 26.7 nM | apparent KD of MS2 coat protein [1]: 47.2 nM | apparent KD of MS2 coat protein (input ligand: none): 64.1 nM

UGGAUCUAGGCUUGCCUGGGUCCAUGUUGACAUGAGGAUCACCCAUGUGUUUUUUUUUUGCUUUUUGUUUGUCAACA [JL A Humble Attempt mod 3] (puzzle: Sensor for hsa-mir-208a)
apparent KD of MS2 coat protein [2]: 19.1 nM | apparent KD of MS2 coat protein [3]: 12.3 nM | apparent KD of MS2 coat protein [4]: 21.7 nM

AGAAUACAUGAGGAUCACCCAUGUCAACGUAGUCGAGGAUAUGGGCAGCCGUGAGGCGUACUAGAAGGCGAAGAGA [Mat - Same State 1 - Mod of JL - D6] (puzzle: Same State 1)
apparent KD of MS2 coat protein [2]: 99.8 nM | apparent KD of MS2 coat protein [3]: 437 nM | apparent KD of MS2 coat protein [4]: 280 nM

AAAAGCGACGUAGGAUAUCCUCUACAUGCGUAAGGAGAAGGAUGCGCAACAUGAGGAUCACCCAUGUAAAACCAGCACUACUGG [Zalaendi] (Eterna round: R96, puzzle: Same State NG 1)
apparent KD of MS2 coat protein (input ligand: FMN 200 uM): 53.1 nM | apparent KD of MS2 coat protein [1]: 32.6 nM | apparent KD of MS2 coat protein (input ligand: none): 44.9 nM

GGCUAUCGCGUACGAUAGCUUAGGCAUGUACAUGAGGAUCACCCAUGUCAUGUACAGGCUUUUUGCUCGUCUUAUUG [JL-shm-2.36 JL mod] (puzzle: Sensor for hsa-mir-208a)
apparent KD of MS2 coat protein [2]: 179 nM | apparent KD of MS2 coat protein [3]: 16.7 nM | apparent KD of MS2 coat protein [4]: 210 nM

GCUCGAUGAGCGUUUUACAUGAGGAUCACCCAUGUUCGUGGGCAGGAUAUUUACGUGCGGUGUGUAGAGAAGGGCCCAUCGAGC [SameState NG3 #69] (Eterna round: R96, puzzle: Same State NG 3)
apparent KD of MS2 coat protein (input ligand: FMN 200 uM): 87.1 nM | apparent KD of MS2 coat protein [1]: 247 nM | apparent KD of MS2 coat protein (input ligand: none): 529 nM

GUAGCAUACCGAGGAUAUUCAUAUAAUAAAUAAACAUGAGGAUCACCCAUGUGGCGAAAGCCUUGGGAGAAGGCGGAAUGCUAC [Xeonanis - 20 Mod55] (Eterna round: R96, puzzle: Same State NG 2)
apparent KD of MS2 coat protein (input ligand: FMN 200 uM): 20.7 nM | apparent KD of MS2 coat protein [1]: 296 nM | apparent KD of MS2 coat protein (input ligand: none): 486 nM

GCUACCAAAGAAGCCAACAUGAGGAUCACCCAUGUAUGUUGGCAGGAUAUCGAUUGCAAAGCGAUCGAGAAGGGCUAAGGUAGC [Mat - Same State NG 3 - JL Mod - D88] (Eterna round: R96, puzzle: Same State NG 3)
apparent KD of MS2 coat protein (input ligand: FMN 200 uM): 147 nM | apparent KD of MS2 coat protein [1]: 214 nM | apparent KD of MS2 coat protein (input ligand: none): 204 nM

CGUCCGGCCUGAGCUGGACGGAGGCAUGUACAUGAGGAUCACCCAUGUUCAUGUGCAGGCUUUUUGCUCGUCUUGUG [JL-shm-2.07 JL mod] (puzzle: Sensor for hsa-mir-208a)
apparent KD of MS2 coat protein [2]: 53 nM | apparent KD of MS2 coat protein [3]: 10.9 nM | apparent KD of MS2 coat protein [4]: 54.2 nM

UGUACUUUCAUAGGAUAUCAUGCGAAAAUUGCGUGAGAAGGGUGAAUACUGUCUUUCUAAGAGUACAUGAGGAUCACCCAUGUA [SameState NG1 #63] (Eterna round: R96, puzzle: Same State NG 1)
apparent KD of MS2 coat protein (input ligand: FMN 200 uM): 77.3 nM | apparent KD of MS2 coat protein [1]: 80.2 nM | apparent KD of MS2 coat protein (input ligand: none): 67.5 nM

CGUCGUUUGAUAGGAUAUCGCUUUACAUGAGGAUCACCCAUGUUUACCACGCUGGUUUUUCUUUCCGAGAAGGAUUCUGAUGUU [salish99_SSNG02_r04_023] (Eterna round: R96, puzzle: Same State NG 2)
apparent KD of MS2 coat protein (input ligand: FMN 200 uM): 35.7 nM | apparent KD of MS2 coat protein [1]: 25.2 nM | apparent KD of MS2 coat protein (input ligand: none): 35.9 nM

AUAAUACAUGAGGAUCACCCAUGUAAUUUAACUUGUAAGAUCAAGGAUAUCAGCUCGAUUAGAGCUGAGAAGGUGAUCACAUGU [SSNG3/20-A2] (Eterna round: R96, puzzle: Same State NG 3)
apparent KD of MS2 coat protein [1]: 69.1 nM

CUGAGAAGUCAAGGAUAUCACGUCGAUUAGACGUGAGAAGGUGAUCAUUACAUGAGGAUCACCCAUGUGUUACAUGGAACUCAG [Brourd's SSNG1/1-A2 mod 7] (Eterna round: R96, puzzle: Same State NG 1)
apparent KD of MS2 coat protein (input ligand: FMN 200 uM): 672 nM | apparent KD of MS2 coat protein [1]: 659 nM | apparent KD of MS2 coat protein (input ligand: none): 762 nM

GGUCCAGCCUGAGCUGGACCACAGCAUGUACAUGAGGAUCACCCAUGUCAUGUACAAGCUUUUUGUUUAACUUAAAA [Sensorship 12 - Jieux - Sensor for hsa-mir-208a] (puzzle: Sensor for hsa-mir-208a)
apparent KD of MS2 coat protein [2]: 211 nM | apparent KD of MS2 coat protein [3]: 18.2 nM | apparent KD of MS2 coat protein [4]: 287 nM

GGUCCGGCCUGAGCUGGACCGAAGCAUGUACAUGAGGAUCACCCAUGUCAUGUACAGGCUUUUUGCUCGUCUUAUUG [JL-shm-2.13 JL Mod] (puzzle: Sensor for hsa-mir-208a)
apparent KD of MS2 coat protein [2]: 705 nM | apparent KD of MS2 coat protein [3]: 14.4 nM | apparent KD of MS2 coat protein [4]: 683 nM

CGUCCGGCCUGUGCUGGACGGAAGCAUGUACAUGAGGAUCACCCAUGUUCAUGUGCAGGCUUUUUGCUCGUCUUGUG [salish99_mir208a_modof_jandersonlee_005] (puzzle: Sensor for hsa-mir-208a)
apparent KD of MS2 coat protein [2]: 102 nM | apparent KD of MS2 coat protein [3]: 13.4 nM | apparent KD of MS2 coat protein [4]: 117 nM

AUAAGUUCGAUGCUCGUCUCUCCGUACAAACAUGAGGAUCACCCAUGUGGUCGGGAAGUAGCCCGGCCAGUAUGACC [Arbesoce] (puzzle: Sensor for hsa-mir-208a)
apparent KD of MS2 coat protein [2]: 31.2 nM | apparent KD of MS2 coat protein [3]: 22 nM | apparent KD of MS2 coat protein [4]: 29 nM

ACCGAGAGGCUAGGAUAUUAGGGCAUUUGCAUAUGAGAAGGAGCCAGAUGGCCACAUGAGGAUCACCCAUGUCAACCCUGGACA [Eternabot solution 4] (Eterna round: R96, puzzle: Same State NG 1)
apparent KD of MS2 coat protein (input ligand: FMN 200 uM): 22.5 nM | apparent KD of MS2 coat protein [1]: 12.9 nM | apparent KD of MS2 coat protein (input ligand: none): 18.2 nM

GGUUUAGUCGAGUGCCAUUCCACUCGAAAACAUGAGGAUCACCCAUGUUUGGGACAAGCUUUGCUCCUCGUCUUUCC [Inertequ] (puzzle: Sensor for hsa-mir-208a)
apparent KD of MS2 coat protein [2]: 259 nM | apparent KD of MS2 coat protein [3]: 75.8 nM | apparent KD of MS2 coat protein [4]: 371 nM
